We go through two molecules from US12378324B2, “Anti superoxide dismutase 1 (SOD1) antibodies and use thereof” (B. G. NEGEV TECHNOLOGIES AND APPLICATIONS LTD., AT …, priority 2018, dated 2025).

Common to all, as to type: binding
The test system of test [1] is misfolded SOD1 variants (apo-SOD1^WT, holo-SOD1^WT, apo-SOD1^G93A, apo-SOD1^G85R). Briefly: ELISA of secreted scFv-Ab (supernatant of transfected HEK 293 cells) on SOD1 variants. The note with it: FIG. 2, HEK 293 supernatant, anti-c-myc detection. The text has this: Binding of secreted scFv-Ab (as supernatant of HEK 293 cells transfected with the vector expressing scFv-Ab) to SOD1 variant (apo-SOD1^WT, holo-SOD1^WT, apo-SOD1^G93A, and apo-SOD1^G85R), was quantified by enzyme-linked immunosorbent assay (ELISA).
The inventors have constructed a single-chain fragment variable antibody (scFv-mAb), representing a hybrid protein that comprises both heavy and light chain variable Ig regions of the anti-β6/β7-loop mAb connected by a short flexible linker (linker length 15-20 amino acids). The advantages of single-chain antibody are its small size, low immunogenicity and increased half-life (due to the reduced clearance via Fc-mediated microglia phagocytosis), and the ability to be used in a gene delivery system, such as recombinant adeno-associated virus, AAV6, for intra- or extracellular expression. AAV vectors have a broad cell type tropism, provide stable and safe gene expression and minimize immune response. […] Recent advances in AAV vector engineering enabled these vectors (AAV9) to be injected directly IV to obtain efficient CNS expression DNA sequences encoding the scFv-Ab of the invention were further optimized in terms of the codon usage for expression in mammalian cells (e.g., murine). […]

The next test has as its target holo-SOD1^WT (Homo sapiens, UniProt P00441). Description: ELISA of hybridoma supernatants with SOD1 variants as coating antigens. The following applies: apo-SOD1^WT saturated with Cu2+ and Zn2+ by dialysis. From the text: (§1) FIGS. 1A-1B are an image and a graph showing (1A) the surface pocket shaped by the two β6/β7 loops (arrows) in the intact SOD1^WT dimer, and (1B) the results of enzyme linked immunosorbent assay (ELISA) of supernatants of several hybridoma clones expressing anti-β6/β7-loop monoclonal antibody (mAb) using SOD1 variants as coating antigens. NC—negative control. WT—wild type; apo—WT in the absence of metals (Cu^2+ and Zn^2+); holo—WT in the presence of metals (Cu^2+ and Zn^2+); G93A—Glycine at position 93 was substituted to Alanine; G85R—Glycine at position 85 was substituted to Arginine; antigen peptide—peptide used to produce the disclosed mAb.
(§2) The loss of stabilizing metals, especially Zn^2+ is considered as the primary event which triggers the noxious structural transformation of SOD1, ultimately resulting in amyloid aggregation. Therefore, it is possible that the exposure of the β6/β7 loop epitope represents an early manifestation of the SOD1 noxious misfolding, and it is a common feature for both SOD1^WT and fALS SOD1^MUT. This early β6/β7 loop epitope is fundamentally different from the late epitopes of misfolded SOD1 such as those exposed on the dimer interface upon SOD1 monomerization; they correspond to the advanced stages of SOD1 misfolding and are apparently irreversible.
In general terms: ELISA stands for enzyme-linked immunosorbent assay.

Another test addresses apo-SOD1^WT (Homo sapiens, UniProt P00441). Described as above. The note with it: WT in the absence of Cu2+ and Zn2+, similar to SOD1^G93A and SOD1^G85R.
Excerpt: as §1, §2

Test [2] has as its system misfolded familial ALS (fALS) mutants of SOD1 (SOD1^G93A and SOD1^G85R). The description is as above. The following applies: FIG. 1B, SOD1^G93A and SOD1^G85R vs intact SOD1^WT.
Excerpt: as §1, §2

apo-SOD1^WT, sequence (P00441 2-154 limits assumed): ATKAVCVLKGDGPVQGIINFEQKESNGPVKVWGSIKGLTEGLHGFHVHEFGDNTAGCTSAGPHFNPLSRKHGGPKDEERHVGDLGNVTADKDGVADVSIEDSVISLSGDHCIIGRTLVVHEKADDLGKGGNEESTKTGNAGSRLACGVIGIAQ
holo-SOD1^WT, sequence (P00441 2-154 limits assumed): as above

B1: scFv-Ab: single-chain fragment variable antibody: heavy and light chain variable regions of the anti-β6/β7-loop mAb joined by a flexible linker (protein)
scFv: QIQLVQSGPELKKPGESVSISCKASGYTFTDSAIHWVKQAPGKGLKYMGWINTYTGKPTYADDFKGRFVFSLEASASTAKLQISNLKSEDTATFFCARSVYSYDGTFYRYFLDAWGQGASVTVSSGGGGSGGGGSGGGGSDTVLTQSPALAVSPGEKVTISCRASESVSKHIHWFQQKSGQQPTLLIYLASSLESGVPARFSGSGSGTDFTLTIDPVEADDTATYYCQQSWNDPWTFGGGTKLELKGGGGS
modifications: left off: small tags and cut ends
notes: single-chain fragment variable antibody: heavy and light chain variable regions of the anti-β6/β7-loop mAb joined by a flexible linker
As for B1, the “binding of scFv-Ab to SOD1 variants” value in test [1] is “selectively recognizes misfolded SOD1 variants”.

B2: 6D12B10: rat monoclonal antibody against the β6/β7 loop of SOD1, raised with KLH-conjugated SE-21 peptide (antibody, V domains shown)
VH: QIQLVQSGPELKKPGESVSISCKASGYTFTDSAIHWVKQAPGKGLKYMGWINTYTGKPTYADDFKGRFVFSLEASASTAKLQISNLKSEDTATFFCARSVYSYDGTFYRYFLDAWGQGASVTVSS
VL: DTVLTQSPALAVSPGEKVTISCRASESVSKHIHWFQQKSGQQPTLLIYLASSLESGVPARFSGSGSGTDFTLTIDPVEADDTATYYCQQSWNDPWTFGGGTKLELK
Regarding B2, the “mAb binding to holo-SOD1^WT” value with holo-SOD1^WT is reported as “completely abolished mAbs binding”. Moreover, the “recognition of metal-free apo-SOD1^WT” value with apo-SOD1^WT is listed as “recognized metal-free apo-SOD1^WT as misfolded protein”. Moreover, the “discrimination between the intact SOD1^WT and misfolded fALS mutants of SOD1” value in test [2] is listed as “complete discrimination”.
